From article PMC3976988 (Nature structural & molecular biology, 2013)

Target: exosome core (S. cerevisiae, UniProt P46948 1-246; Q05636 1-305; Q12277 1-265; P25359 1-394; P48240 1-250; P53256 …)
Assay: tandem affinity purification + ion-exchange chromatography

- stoichiometry N: 1 molar ratio
B1: Rrp44 (enzyme, S. cerevisiae, UniProt Q08162 1-1001, looked up)
chain: MSVPAIAPRRKRLADGLSVTQKVFVRSRNGGATKIVREHYLRSDIPCLSRSCTKCPQIVVPDAQNELPKFILSDSPLELSAPIGKHYVVLDTNVVLQAIDLLENPNCFFDVIVPQIVLDEVRNKSYPVYTRLRTLCRDSDDHKRFIVFHNEFSEHTFVERLPNETINDRNDRAIRKTCQWYSEHLKPYDINVVLVTNDRLNREAATKEVESNIITKSLVQYIELLPNADDIRDSIPQMDSFDKDLERDTFSDFTFPEYYSTARVMGGLKNGVLYQGNIQISEYNFLEGSVSLPRFSKPVLIVGQKNLNRAFNGDQVIVELLPQSEWKAPSSIVLDSEHFDVNDNPDIEAGDDDDNNESSSNTTVISDKQRRLLAKDAMIAQRSKKIQPTAKVVYIQRRSWRQYVGQLAPSSVDPQSSSTQNVFVILMDKCLPKVRIRTRRAAELLDKRIVISIDSWPTTHKYPLGHFVRDLGTIESAQAETEALLLEHDVEYRPFSKKVLECLPAEGHDWKAPTKLDDPEAVSKDPLLTKRKDLRDKLICSIDPPGCVDIDDALHAKKLPNGNWEVGVHIADVTHFVKPGTALDAEGAARGTSVYLVDKRIDMLPMLLGTDLCSLKPYVDRFAFSVIWELDDSANIVNVNFMKSVIRSREAFSYEQAQLRIDDKTQNDELTMGMRALLKLSVKLKQKRLEAGALNLASPEVKVHMDSETSDPNEVEIKKLLATNSLVEEFMLLANISVARKIYDAFPQTAMLRRHAAPPSTNFEILNEMLNTRKNMSISLESSKALADSLDRCVDPEDPYFNTLVRIMSTRCMMAAQYFYSGAYSYPDFRHYGLAVDIYTHFTSPIRRYCDVVAHRQLAGAIGYEPLSLTHRDKNKMDMICRNINRKHRNAQFAGRASIEYYVGQVMRNNESTETGYVIKVFNNGIVVLVPKFGVEGLIRLDNLTEDPNSAAFDEVEYKLTFVPTNSDKPRDVYVFDKVEVQVRSVMDPITSKRKAELLLK
